Measured values from US20060110789A1, “Methods to mediate polyketide synthase module effectiveness” (priority 2002, published 2006).

B1: holo-ACP4(4): phosphopantetheinylated DEBS ACP4 domain with its natural C-terminal linker (protein)
chain: HHHHHHNVVDRLAGRSESDQVAGLAELVRSHAAAVSGYGSADQLPERKAFKDLGFDSLAAVELRNRLGTATGVRLPSTLVFDHPTPLAVAEHLRDRLFAASPAVDIGDRLDELEKALEALSAEDGHDDVGQRLESLLRRWNSRRADAPSTSAISEDASDDELFSMLDQRFGGGEDL
B2: diketide-eryLDD(Ø): diketide on the DEBS loading didomain with no C-terminal linker (conjugate)
chain: MSGPRSRTTSRRTPVRIGAVVVASSTSELLDGLAAVADGRPHASVVRGVARPSAPVVFVFPGQGAQWAGMAGELLGESRVFAAAMDACARAFEPVTDWTLAQVLDSPEQSRRVEVVQPALFAVQTSLAALWRSFGVTPDAVVGHSIGELAAAHVCGAAGAADAARAAALWSREMIPLVGNGDMAAVALSADEIEPRIARWDDDVVLAGVNGPRSVLLTGSPEPVARRVQELSAEGVRAQVINVSMAAHSAQVDDIAEGMRSALAWFAPGGSEVPFYASLTGGAVDTRELVADYWRRSFRLPVRFDEAIRSALEVGPGTFVEASPHPVLAAALQQTLDAEGSSAAVVPTLQRGQGGMRRFLLAAAQAFTGGVAVDWTAAYDDVGPNPALCRSSRRPRRKTSRPSPASTGTRHRTCCERLLAVVNGETAALAGREADAEATFRELGLDSVLAAQLRAKVSAAIGREVNIALLYDHPTPRALAEALAAGT
modifications: non-natural residues
notes: diketide on the DEBS loading didomain with no C-terminal linker
B3: diketide-ACP2(Ø): diketide on isolated ACP2 domain without linker region (conjugate)
chain: HHHHHHDRLAGLPRAERTAELVRLVRTSTATVLGHDDPKAVRATTPFKELGFDSLAAVRLRNLLNAATGLRLPSTLVFDHPNASAVAGFLDAELG

Experiments:
Format in all cases: biochemical
[1] = biological target: T1, (5)M2+TE (Saccharopolyspora erythraea, UniProt Q03131+Q03133); assay: Labeling of holo-ACP4(4) with 14C-2a mediated by (5)M2+TE (back-transfer); details: 20 μM holo-ACP4(4), 1 mM 14C-2a, with and without 1 μM (5)M2+TE
T1 construct: The protein was, in each case, a single module of the DEBS PKS fused to the thioesterase (TE) termination region of module 6; first 39 amino acids of module 5 (N-ERL); made in house; host or cells: E. coli (BL21(DE3) with sfp)
Description: Labeling of Holo-ACP4(4) with ^14C-2a Mediated by (5)M2+TE. Holo-ACP4(4) (20 μM) was incubated with 1 mM [1-^14C]-labeled 2a (custom synthesized by Amersham Pharmacia, specific activity 55 mCi/mmol) and 1 μM (5)M2+TE in reaction buffer C for 10 min at 30° C. The protein was precipitated with 75% acetone/H2O for 5 min at −80° C. After washing the pellet with 6.25% (w/v) TCA to remove excess salts followed by 500 μL of 75% acetone/H2O to remove residual, unbound 14 C-2a, the precipitated protein was resuspended in 8 μL of buffer A and 4 μL of SDS sample buffer, and resolved on a 420% SDS-PAGE gradient gel (Bio-Rad). The proteins were visualized with Coomassie blue stain and dried, and the radioactivity was detected either on a Packard InstantImager or by exposing the gel to X-ray film.

[2] = biological target: T1, (5)M2+TE; assay: Substrate transfer and elongation assay, acceptor DEBS module 2; details: 20 μM substrate, 2 hours
Description: (§1) Substrate transfer and elongation assays. Qualitative assays were performed with a diketide-ACP or diketide-PCP substrate either taken directly from the so phosphopantetheinlyation reaction or after further purification of the substrate. These assays were performed with 20 μM diketide-ACP/PCP substrate for 2 hours in the following reaction conditions: 1 μM acceptor module, 0.5 mM ^14C-methylmalonyl CoA, 4 mM NADPH in buffer C, 30° C. After quenching by addition of 250 μL EtOAc and vortexing, the products were extracted with 2×250 μL EtOAc, resolved on a silica gel TLC plate, and visualized on a Packard InstantImager.
(§2) The kinetics of substrate transfer at the module 2-module 3 interface followed by elongation and product release were examined as a function of the k60 μM and kcat/KM values of the overall reaction. […] In many cases, the k60μm values approximate the maximal overall turnover rates, as determined by back calculating the KM value for the reactions. True saturation kinetics were not practical because of the technical limitations (e.g., solubility) and limited supply associated with high molecular weight substrates such as diketide-ACP and diketide-PCP. kcat/KM values were determined by competitive assay of the substrate of interest against a substrate with a known kcat/KM value, as previously described (Wu, et al., (2001) J. Am. Chem. Soc. 123, 6465-6474). […]

[3] = biological target: T2, (5)M6+TE (Saccharopolyspora erythraea, UniProt Q03133, DEL53-1503); assay: Substrate transfer and elongation assay, acceptor DEBS module 6; details: 20 μM substrate, 2 hours
T2 construct: The protein was, in each case, a single module of the DEBS PKS fused to the thioesterase (TE) termination region of module 6; first 39 amino acids of module 5 (N-ERL); made in house; host or cells: E. coli (BL21(DE3) with sfp)
Description: as §1, §2

| Molecule | radiolabeling of the ACP by 14C-2a [1] | qualitative transfer of diketide to (5)M2+TE [2] | qualitative transfer of diketide to (5)M6+TE [3] |
| --- | --- | --- | --- |
| B1 | radiolabeled only in the reaction containing (5-M2+TE | – | – |
| B2 | – | able to channel the diketide substrate | able to channel the diketide substrate |
| B3 | – | able to channel the diketide substrate | able to channel the diketide substrate |
